The target in one assay is T1, 重组Human-CD3-FC蛋白 (human).
T1 chain: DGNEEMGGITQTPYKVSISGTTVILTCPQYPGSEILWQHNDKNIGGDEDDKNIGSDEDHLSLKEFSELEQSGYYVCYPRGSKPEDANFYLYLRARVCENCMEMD
Briefly: ELISA, coated CD3-FC 200 ng/ml, HRP goat anti-human Fab.

In a further assay the target is T2, 重组Human-TROP-2-HIS蛋白 (human, UniProt P09758 27-274, limits assumed).
T2 construct: Bought protein; also called TROP-2-HIS蛋白 (恺佧, TRP-HM121); not shown: His tag
T2 sequence (looked up): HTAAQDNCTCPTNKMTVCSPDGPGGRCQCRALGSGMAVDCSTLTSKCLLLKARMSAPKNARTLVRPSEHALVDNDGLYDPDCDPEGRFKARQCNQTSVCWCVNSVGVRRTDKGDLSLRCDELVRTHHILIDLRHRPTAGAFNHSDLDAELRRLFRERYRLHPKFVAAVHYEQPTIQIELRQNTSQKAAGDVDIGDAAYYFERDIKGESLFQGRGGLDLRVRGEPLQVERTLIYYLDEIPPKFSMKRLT
Briefly: ELISA, coated TROP-2-HIS 200 ng/ml, HRP goat anti-human Fc. A general note: ELISA stands for enzyme-linked immunosorbent assay.

One may read the EC50 as the midpoint of the concentration-response curve. Low values mean higher potency in that assay, high ones lower potency in that assay.

B1: 人源化SP34 (抗CD3单抗阳性对照) (antibody, human IgG1, kappa, V domains shown)
VH: EVQLVESGGGLVQPGGSLRLSCAASGFTFNTYAMNWVRQAPGKGLEWVARIRSKYNNYATYYADSVKDRFTISRDDSKNTLYLQMNSLRAEDTAVYYCVRHGNFGNSYVSWFAYWGQGTLVTVSS
VL: QAVVTQEPSLTVSPGGTVTLTCRSSTGAVTTSNYANWVQQKPGQAPRGLIGGTNKRAPGVPARFSGSLLGGKAALTLSGAQPEDEAEYYCALWYSNLWVFGQGTKVEIKR
notes: Full-length humanised SP34: VH + human IgG1 constant region, VL + human Kappa constant region; also called 阳性对照CD3单抗; 人源化SP34单克隆抗体
The molecule B1 displayed a concentration giving a half-maximal response (EC50) in the assay with 重组Human-CD3-FC蛋白 of 0.0618 nM.

B2: KM4097HV3aLV0人源化单克隆抗体 (抗TROP-2单抗阳性对照) (antibody, V domains shown)
VH: QVQLVQSGPEVKKPGASVKVSCKASGYTFTIYWLGWVRQAPGQGLEWMGNIFPGSAYINYNEKFKGKVTITADTSTSTAYMELSSLRSEDTAVYFCAREGSNSGYWGQGTLVTVSS
VL: DIVMTQSPDSLAVSLGERATINCKSSQSLLNSGNQQNYLAWYQQKPGQPPKLLIYGASTRESGVPDRFSGSGSGTDFTLTISSLQAEDVAVYYCQSDHIYPYTFGQGTKLEIKR
notes: IgG (detected with anti-human Fc); also called 阳性对照抗TROP-2单抗
In the assay with 重组Human-TROP-2-HIS蛋白, B2 returned an EC50 of 0.0261 nM.

(Values after patent CN117126289A (SUNSHINE GUOJIAN PHARMACEUTICAL SHANGHAI CO LTD, dated 2023).)
